Source: patent US9884910B2, “Anti-PDGF-C antibodies” (ThromboGenics NV, priority 2012, dated 2018)
Where a chain is given by its changes, count along the chain named.

B1: Humanized mAb 5H7: humanized 5H7; VH SEQ ID NO:102, VL SEQ ID NO:103 (antibody, V domains shown)
VH: EVQLLESGGGLVQPGGSLRLSCAASGFTFSSYGMSWVRQTPGKGLEWVATIGYGGSFTYYPDSMKGRFTISRDNAKNTLYLQMNSLRAEDTAVYYCARQAPLWDYFDYWGQGTLLTVSS
VL: DVVMTQSPLSLPVTLGQPASISCRSSQTIVHSDGTTYLEWYLQKPGQSPRLLIYKVSNRFSGVPDRFSGSGSGTDFTLKISRVEAEDVGVYYCFQGSHVPPTFGQGTKLEIK
modifications: humanized variable heavy chain murine monoclonal antibody 5H7; humanized variable light chain murine monoclonal antibody 5H7
B2: 5A2: murine monoclonal anti-PDGF-C antibody, IgG2b κ; VL SEQ ID NO:15, VH SEQ ID NO:19 (antibody, listed as Mus musculus, V domains shown)
VH: EVQLVESGGDLVKPGGSLKLSCAASGFTFSNYGMSWVRQTPDKRLEWVATIGSGGHYTYYPDSVKGRFTISRDSAKSTLYLQMSSLKSEDTAIYYCARQAPLWDCSDYWGQGTTLTVSS
VL: DVLMTQTPLSLPVSLGDQASISCRSNQSIVHSNGDTYLEWYLQKPGQSPKLLIYKVSNRFSGVPDRFSGSGSGTDFTLKISRVEAEDLGVYYCFQGSHVPPTFGGGTKLEIK
B3: 5H7: murine monoclonal anti-PDGF-C antibody, IgG1 κ; VL SEQ ID NO:16, VH SEQ ID NO:20 (antibody, listed as Mus musculus, V domains shown)
VH: EVQLVESGGDLVKPGGSLKLSCAASGFTFSSYGMSWVRQTPDKRLEWVATIGYGGSFTYYPDSMKGRFTISRDNAKNTLFLQMSSLKSEDTAIYYCVRQAPLWDYFDYWGQGTTLTVSS
VL: B2 VL with N26S, S28T, N33D, D35T, P45A
B4: 2D3: murine monoclonal anti-PDGF-C antibody, IgG1 κ; VL SEQ ID NO:14, VH SEQ ID NO:18 (antibody, listed as Mus musculus, V domains shown)
VH: B2 VH with H56S, S77N, I93M, C105Y
VL: B2 VL with S28T, K50N
B5: 16B1: murine monoclonal anti-PDGF-C antibody, IgG1 κ; VL SEQ ID NO:15, VH SEQ ID NO:18 (antibody, listed as Mus musculus, V domains shown)
VH: B2 VH with H56S, S77N, I93M, C105Y
VL: B2 VL

Tests used:
[1] = biological target: T1, PDGFRα activation by human PDGF-C (Homo sapiens, UniProt Q9NRA1); assay: PathHunter PDGFRα receptor tyrosine kinase assay in U2OS PDGFRα PLCG1 cells; format: cell-based
T1 construct: the growth factor domain of PDGF-C (amino acids 235-345 of human PDGF-C); purchased R&D Systems 1687-CC/CF; host or cells: ligand added to U2OS PDGFRα PLCG1 cells (DiscoveRx, assay 93-0823C3) that express the transfected receptor
T1 sequence (Q9NRA1 235-345): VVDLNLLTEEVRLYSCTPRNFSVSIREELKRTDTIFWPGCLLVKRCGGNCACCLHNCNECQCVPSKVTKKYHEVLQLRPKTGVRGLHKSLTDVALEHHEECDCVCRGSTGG
Source text: To evaluate the inhibitory activity of anti-human PDGF-C antibodies on PDGFRα activation by human PDGF-C, the PathHunter® receptor tyrosine kinase assay for PDGFRα (93-0823C3) from DiscoveRx® was used. […] A small complementing fragment of β-gal, the Prolink™ tag (PK) has been fused recombinantly to the intracellular C-terminus of the receptor tyrosine kinase PDGFRα. The larger portion of β-gal, termed EA for enzyme acceptor, is co-expressed with an SH2 (Src Homology 2) phosphotyrosine binding domain. Ligand-induced activation of the receptor results in dimerization and intra-cellular cross-phosphorylation of the receptor. Subsequently, the SH2 domain specifically binds the phosphorylated receptor resulting in the complementation of the two β-gal fragments PK and EA, and formation of a functional β-gal enzyme. Following addition of a β-gal substrate, an easily detectable chemiluminescent signal is produced which is directly correlated to receptor activation. The LumiLITE™ microplate reader is fully compatible with all EFC-based assays of DiscoveRx® and is therefore used.
For the PathHunter® PDGFRα, assay, U2OS PDGFRα, PLCG1 (phospholipase Cγ as the source of the SH2 domain) cells from DiscoveRx® were used. Frozen cells were stored in liquid nitrogen. Upon thawing, cells were resuspended in pre-warmed thawing medium (i.e. culture medium without the selection antibiotics Geneticin and Hygromycin B). After 48 hours of culture in a 5% CO2 incubator at 37° C., thawing medium was replaced by culture medium (MEM Eagle 1× (30-2003 from Invitrogen), 10% fetal bovine serum (SH30071.03 from Perbio Science), 1× Penicillin-Streptomycin-Glutamine (10378-016 from Invitrogen), 250 μg/ml Hygromycin B (10687-010 from Invitrogen), 500 μg/ml Geneticin (10131-035 from Invitrogen)). Once confluence was reached, cells were passaged with a ⅓ dilution every 2-3 days using Accutase (L11-007 from PAA). Cells were maintained in a non-confluent state during routine culture.
In the PathHunter® PDGFRα, assay, the U2OS PDGFRα, PLCG1 cells from DiscoveRx® cultured up to 10 passages were used. Cells were seeded at 20.000 cells in 100 μl per well in 96-well white culture-treated microplates with clear bottom (3610 from Corning). The PathHunter® Cell Plating 16 Reagent (93-0563R16 from DiscoveRx®) was employed as seeding medium. Following 24 hours of culture in 5% CO2 at 37° C., 25 μl of a 5-fold concentrated agonist solution in Cell Plating 16 Reagent was used per well to stimulate the cells. Recombinant human PDGF-C from R&D Systems (1687-CC/CF; Va1235-Gly345) was applied as agonist. After 3 hours incubation at room temperature, 60 μl of PathHunter® detection reagent (93-0001 from DiscoveRx®; 1 part Galacton Star® Substrate, 5 parts Emerald II™ Solution, and 19 parts of PathHunter® Cell Assay Buffer) was added. Cells were placed at room temperature and in the dark for another hour before luminescence was measured with the LumiLITE™ microplate reader. With GraphPad Prism® software, a non-linear regression analysis was performed using the obtained luminescent values in order to generate a sigmoidal agonist dose-response curve with variable slope. The EC50 (i.e. half maximal effective concentration) and EC80 value (i.e. the effective concentration that leads to 80% of the maximal response) for human PDGF-C was calculated.
To evaluate the inhibitory activity of anti-human PDGF-C antibodies on PDGFRα, activation by human PDGF-C, equal volumes of […] concentrated solutions of anti-human PDGF-C antibodies and the EC80 of human PDGF-C, prepared in Cell Plating 16 Reagent, were mixed and the assay was performed as described above. As positive controls, an anti-human PDGF-C polyclonal goat IgG antibody (AF1560 from R&D Systems) and recombinant human PDGFRα, Fc chimera (6765-PR from R&D Systems) were employed. […]

[2] = biological target: T2, 15-mer, overlapping peptides covering the entire human PDGF-C molecule (Homo sapiens, UniProt Q9NRA1); assay: Epitope mapping ELISA on 15-mer overlapping peptides; format: binding; conditions: peptide coated 10 μg/mL, antibody 1 μg/mL
T2 construct: host or cells: chemical synthesis
Experimental: The binding of anti-PDGF-C antibodies to 15-mer, overlapping peptides covering the entire human PDGF-C molecule was assessed by ELISA. Antibodies included in this analysis are the five antibodies potently inhibiting activation of PDGF-Rα by PDGF-C, i.e. monoclonal antibodies 2D3, 5A2, 5H7, 16B1 and 29H1. Further included are two antibodies capable of binding to PDGF-C, but not or very poorly inhibiting activation of PDGF-Rα by PDGF-C, i.e. monoclonal antibodies 12E5 (IgG1) and 19F12 (IgG2b) (see Example 4). […] For all antibodies, it was confirmed that they bind to human PDGF-C and binding to full-length human PDGF-C was for all antibodies tested more efficient than binding to any of the peptides identified as described hereafter.
The indicated peptides where synthesized in an N-terminally biotinylated form and coated onto a neutravidin plate (Thermo Scientific, Cat. 15127) at a concentration of 10 μg/mL. The antibodies listed in the table were incubated in each well at a concentration of 1 μg/mL and, following washing, were then detected in a standard ELISA format using an appropriate, HRP-labeled secondary antibody (goat anti-mouse IgG-HRP for all antibodies except sc-80290, and goat anti-rat IgG-HRP for sc-80290). Each antibody was tested at least twice, and up to 4 times. A “+” in the table indicate that a signal to background >3 was found and confirmed at least once. The background signal was measured in the absence of peptide using both the primary and the secondary antibodies. Antibodies sc-80290 and MAB1560 were tested only against peptides 42-63 since this represents the fraction of the protein that was used as an immunogen.

glioblastoma tumor, U118 = assay: Antitumor effect against U118 glioblastoma xenograft; format: in vivo; conditions: for TGI (%) Day 53: day 53 post-tumor implantation; for TGI (%) Day 60: day 60 post-tumor implantation; for TGI (%) Day 63: day 63 post-tumor implantation; for TGI (%) Day 67: day 67 post-tumor implantation
Experimental: For the evaluation of anti-tumor activity of the antibodies, animals were weighed and tumors measured 2 times weekly using a caliper. Tumor weights were calculated using the formula mass (mg)=[length (mm)×width (mm)^2]/2. Antitumor activity evaluation was done at the single dose of 20 mg/kg. A dosage producing a 20% body weight loss (bwl) or 10% or more drug deaths, was considered an excessively toxic dosage. Animal body weights included the tumor weights. The primary efficacy end point is the tumor growth inhibition (% TGI). Changes in tumor volume for each treated (T) and control (C) are calculated for each tumor by subtracting the tumor volume on the day of first treatment (staging day) from the tumor volume on the specified observation day. The median ΔT is calculated for the treated group and the median ΔC is calculated for the control group. Then the ratio ΔT/ΔC is calculated and expressed as a percentage of TGI: ΔT=Tt−T0 ΔC=Ct−C0 % TGI=[1−(median(Tt−T0)/median(Ct−C0)]*100
The antitumor effect of 29H1, 5A2 and 16B1 was evaluated against a measurable glioblastoma tumor, U118, which express both PDGF-C and its receptor, PDGFRa, S.C. implanted in female SCID Beige mice. Control group was treated with PBS alone. The antibodies were administered by an intraperitoneal (IP) injection, and treatment started on day 28 post-tumor implantation and was performed twice a week.

[3] = peptide binds secondary antibody
[4] = 20 mg/kg IP twice a week from day 28

| Molecule | binding to peptide No 58 (SEQ ID NO: 96) VLQLRPKTGVRGLHK [2] | TGI (%) Day 53 (glioblastoma tumor, U118; [4]) | TGI (%) Day 60 (glioblastoma tumor, U118; [4]) | TGI (%) Day 63 (glioblastoma tumor, U118; [4]) | TGI (%) Day 67 (glioblastoma tumor, U118; [4]) | also measured |
| --- | --- | --- | --- | --- | --- | --- |
| B1 | – | – | – | – | – | inhibition of the PDGFRα activation by human PDGF-C (in words) [1]: apparently not inhibiting activation of PDGFR-α; IC50 value (nM) ([1]; humanized antibodies, * average of 3 measurements): nad |
| B2 | + (A “+” in the table indicate that a signal to background >3 was found and confirmed at least once) | 55.7% | 38.5% | 43.4% | 42.0% | binding to peptide No 9 (SEQ ID NO: 47) FPHTYPRNTVLVWRL [2, 3]: + (A “+” in the table indicate that a signal to background >3 was found and confirmed at least once); binding to peptide No 27 (SEQ ID NO: 65) EPGFCIHYNIVMPQF [2, 3]: + (A “+” in the table indicate that a signal to background >3 was found and confirmed at least once); tolerability / body weight loss (glioblastoma tumor, U118; 20 mg/kg IP twice a week): well-tolerated with no tumor body weight loss; TGI (%) Day 56 (glioblastoma tumor, U118; 20 mg/kg IP twice a week from day 28, day 56 post-tumor implantation): 58.5% |
| B3 | + (A “+” in the table indicate that a signal to background >3 was found and confirmed at least once) | – | – | – | – | – |
| B4 | + (A “+” in the table indicate that a signal to background >3 was found and confirmed at least once) | – | – | – | – | – |
| B5 | – | 8.25% | 27.6% | 11.5% | 11.9% | tumor growth block (in words) (glioblastoma tumor, U118; ip, at the different time points evaluated): failed to block tumor growth |
